The record followed here is doi:10.1101/2025.09.24.25335646 (medRxiv, 2025).

For test [1], the target named is A/New York/631/1996 H3N2 hemagglutinin head domain (HA1 43-309) (Influenza A virus A/New York/631/1996 …, strain). The experiment in a line: crystal structure.
Test [2] concerns the target A/California/07/2009 H1N1 hemagglutinin, recombinant HA used for negative-stain EM (Influenza A virus A/California/07/2009 …, UniProt C3W5X2, strain). The experiment in a line: negative-stain EM.

B1: Fab 49_C09 (Fab, V domains shown)
VH: QSTLKESGPTLVKPTETLTLTCTFSGFSLHTSGVGVGWIRQPPGKALECLALIYWNDDARYSPSLQSRLTITKDTSKNQVVLTMSNMDPVDTATYYCAHKGGGRDGYNSAAFDVWGQGTMVTVSS
VL: SYVLTQPPSVSVAPGQTARIPCGGNNIGMKTVHWYQQRPGQAPVVVVYDDSRRPSGIPERFSGSNSGNTATLTISRVEAGDEADYYCQVWDSSVNHWVFGGGTKLTVL
As for B1, the binding result in test [1] is “binds”.

B2: 49_C09 monoclonal antibody (IgG1) (antibody, V domains shown)
VH: B1 VH
VL: B1 VL
As to B2, the binding result in test [2] was “binds”.

B3: Fab 3_H2 (Fab, V domains shown)
VH: QGTLKESGPAMVKPTQTLTLTCTFSGFSLDTSGMCVAWIRQPPGKALEWLALFDWDNNKYYSPSLKTRLNMSKGRSRNQVVLTMTNMDPVDTGTYYCARKVYGSFYYGMDVWGQGTTVTVSS
VL: DIVLTQSPATLSLSPGDSATLSCRASQDVSANLAWYQQKPGQAPRLVIYDATNRATGIPARFSGSGLGTDFTLTISSLEPEDFAVYYCQQRSNWPPVYTFGQGTKLEIK
As to B3, the binding result in test [1] was “binds”.

B4: 3_H2 monoclonal antibody (IgG1) (antibody, V domains shown)
VH: B3 VH
VL: B3 VL
B4: the binding result in test [2] is reported as “binds”.
